The values that follow come from patent publication US20210017277A1 (US Dept. of Health and Human Services, published 2021).

This assay addresses T1, Biotinylated Human Siglec-3/CD33 Protein, Avi Tag (Acro Biosystems) (human, UniProt P20138 18-259, biotinylated (Avi Tag)).
T1 construct: Bought reagent; also called biotinalated Siglec-3; not shown: Avi Tag
As to the kind of experiment: flow cytometry: CAR-transduced T cells stained with biotinylated human Siglec-3/CD33 protein, then Streptavidin-PE. The protocol: Surface expression of CD33 CAR-transduced T cells was determined by flow cytometry using either protein-L (Themo Fisher) or a Biotinylated Human Siglec-3/CD33 Protein (Acro Biosystems, Newark, Del., USA) followed by incubation with Streptavidin-PE (BioLegend, San Diego, Calif., USA). CD123 CAR expression were detected with protein-L. Expression of CD33, CD123 and other cell surface markers were detected using the following antibodies from eBioscience (Thermo Fisher): CD33, CD45, CD3, CD8a, CD4, CD10.
For CD33 CAR detection with Biotinylated Human Siglec-3/CD33 Protein: CAR detection with: add 2 ul of Biotinylated Human Siglec-3/CD33 Protein, [Avi Tag (Avitag™) Acro Biosystems, Newark, Del., USA], incubate for 20 min, wash once and incubate with 0.5 μl of Streptavidin-PE, incubate for additional 10 min, wash once, subject for FACS analysis.
In general terms: Flow cytometry measures light scatter and fluorescence of single cells or particles in a stream.

T1 sequence (P20138 18-259 limits assumed): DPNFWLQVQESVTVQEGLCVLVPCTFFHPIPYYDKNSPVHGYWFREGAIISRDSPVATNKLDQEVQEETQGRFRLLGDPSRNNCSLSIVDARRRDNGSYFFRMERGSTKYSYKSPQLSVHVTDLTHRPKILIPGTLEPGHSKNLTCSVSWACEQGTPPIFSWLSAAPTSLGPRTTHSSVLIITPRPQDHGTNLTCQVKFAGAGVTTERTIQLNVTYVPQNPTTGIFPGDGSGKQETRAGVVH

B1: CD33Hu195-CD28Z CAR (other)
chain: QVQLVQSGAEVKKPGSSVKVSCKASGYTFTDYNMHWVRQAPGQGLEWIGYIYPYNGGTGYNQKFKSKATITADESTNTAYMELSSLRSEDTAVYYCARGRPAMDYWGQGTLVTVSSGGGGSGGGGSGGGGSDIQMTQSPSSLSASVGDRVTITCRASESVDNYGISFMNWFQQKPGKAPKLLIYAASNQGSGVPSRFSGSGSGTDFTLTISSLQPDDFATYYCQQSKEVPWTFGQGTKVEIKSGAAAIEVMYPPPYLDNEKSNGTIIHVKGKHLCPSPLFPGPSKPFWVLVVVGGVLACYSLLVTVAFIIFWVRSKRSRLLHSDYMNMTPRRPGPTRKHYQPYAPPRDFAAYRSRVKFSRSADAPAYQQGQNQLYNELNLGRREEYDVLDKRRGRDPEMGGKPRRKNPQEGLYNELQKDKMAEAYSEIGMKGERRRGKGHDGLYQGLSTATKDTYDALHMQALPPR
notes: CAR on the surface of transduced human T cells; also called CD33.2-28z; CD33.2-CD28z
On to B1, for which the binding result was “binds”.
